Experimental data taken from US20100095387A1, “METHODS AND REAGENTS FOR SCREENING NEW DRUGS AND FOR TREATING ION PUMP ASSOCIATED DISORDERS AND DISEASES” (priority 2005, published 2010).

Tested on: cultured cortical neurons
Assay: Firing properties of cultured cortical neurons in normal external solution
Type: cell-based, mouse
Conditions: absence of TTX and neurotransmitter receptor antagonists

B1: C-Ag15: 15-kD COOH-terminal fragment of agrin created by deleting 37 amino acids from the NH2 terminus of C-Ag20, SEQ. ID NO. 3 (protein)
chain: MDPWIGKAAERADYMALAIVDGHLQLSYDLASQPVVLRSTVKVNTNRWLRVRAHREHREGSLQVGNEAPVTSSSPLGATQLDTDGALWLGGLQKLPVGQPLPKAYGTGFVGCLRNVVGHRQLHLLEDAVTKPELRPCPTLNSKLGPEQKLISEEDLNSAVDHHHHHH
modifications: Synthetically produced sequence
For B1, which “frequency of spontaneous action potentials” value is on record?
The value was “inhibited spontaneous activity”.

B2: C-Ag20z0: C-Ag20 isoform having the z0 splice variant, SEQ. ID NO. 1 (protein)
chain: MDPRTYIEYLNAVTESEKALQSNHFELTLRTEATQGWLVLWIGKAAERADYMALAIVDGHLQLSYDLASQPVVLRSTVKVNTNRWLRVRAHREHREGSLQVGNEAPVTSSSPLGATQLDTDGALWLGGLQKLPVGQPLPKAYGTGFVGCLRNVVGHRQLHLLEDAVTKPELRPCPTLNSKLGPEQKLISEEDLNSAVDHHHHHH
modifications: Synthetically produced sequence
B2 was tested. Which “frequency of spontaneous action potentials” value did it give?
Its value is “significant and reversible increase”.
